Experimental data published in patent US20180244725.
Positions count from the first letter of the chain named. Numbers in names are those of the source.

Molecular target: T1, R5 peptide
T1 chain: SSKKSGSYSGSKGSKRRIL

B1: lysine methyltransferase SETD7 (SET7/9) (protein)
chain: MDSDDEMVEEAVEGHLDDDGLPHGFCTVTYSSTDRFEGNFVHGEKNGRGKFFFFDGSTLEGYYVDDALQGQGVYTYEDGGVLQGTYVDGELNGPAQEYDTDGRLIFKGQYKDNIRHGVCWIYYPDGGSLVGEVNEDGEMTGEKIAYVYPDERTALYGKFIDGEMIEGKLATLMSTEEGRPHFELMPGNSVYHFDKSTSSCISTNALLPDPYESERVYVAESLISSAGEGLFSKVAVGPNTVMSFYNGVRITHQEVDSRDWALNGNTLSLDEETVIDVPEPYNHVSKYCASLGHKANHSFTPNCIYDMFVHPRFGPIKCIRTLRAVEADEELTVAYGYDHSPPGKSGPEAPEWYQVELKAFQATQQK
methylation of R5 (LC-MS time course): A time course showing the incorporation of zero to 16 methyl groups into R5

B2: SET7/9 Y305F (protein)
chain: B1 chain with Y305F
methylation of R5 (LC-MS time course): A time course showing the incorporation of zero to 16 methyl groups into R5

B3: NMT2 (protein)
chain: MAEDSESAASQQSLELDDQDTCGIDGDNEEETEHAKGSPGGYLGAKKKKKKQKRKKEKPNSGGTKSDSASDSQEIKIQQPSKNPSVPMQKLQDIQRAMELLSACQGPARNIDEAAKHRYQFWDTQPVPKLDEVITSHGAIEPDKDNVRQEPYSLPQGFMWDTLDLSDAEVLKELYTLLNENYVEDDDNMFRFDYSPEFLLWALRPPGWLLQWHCGVRVSSNKKLVGFISAIPANIRIYDSVKKMVEINFLCVHKKLRSKRVAPVLIREITRRVNLEGIFQAVYTAGVVLPKPIATCRYWHRSLNPRKLVEVKFSHLSRNMTLQRTMKLYRLPDVTKTSGLRPMEPKDIKSVRELINTYLKQFHLAPVMDEEEVAHWFLPREHIIDTFVVESPNGKLTDFLSFYTLPSTVMHHPAHKSLKAAYSFYNIHTETPLLDLMSDALILAKSKGFDVFNALDLMENKTFLEKLKFGIGDGNLQYYLYNWRCPGTDSEKVGLVLQ
enzymatic modification of R5 (Lipidation): resulted in no modifications

B4: LplA (protein)
chain: STLRLLISDSYDPWFNLAVEECIFRQMPATQRVLFLWRNADTVVIGRAQNPWKECNTRRMEEDNVRLARRSSGGGAVFHDLGNTCFTFMAGKPEYDKTISTSIVLNALNALGVSAEASGRNDLVVKTVEGDRKVSGSAYRETKDRGFHHGTLLLNADLSRLANYLNPDKKKLAAKGITSVRSRVTNLTELLPGITHEQVCEAITEAFFAHYGERVEAEIISPNKTPDLPNFAETFARQSSWEWNFGQAPAFSHLLDERFTWGGVELHFDVEKGHITRAQVFTDSLNPAPLEALAGRLQGCLYRADMLQQECEALLVDFPEQEKELRELSAWMAGAVR
enzymatic modification of R5 (Lipidation): resulted in no modifications

B5: BRSK2 (protein)
chain: MWPPDPDPDPDPEPAGGSRPGPAVPGLRALLPARAFLCSLKGRLLLAESGLSFITFICYVASSASAFLTAPLLEFLLALYFLFADAMQLNDKWQGLCWPMMDFLRCVTAALIYFAISITAIAKYSDGASKAAGVFGFFATIVFATDFYLIFNDVAKFLKQGDSADETTAHKTEEENSDSDSD
enzymatic modification of R5 (Phosphorylation): resulted in no modifications

B6: GALNT1 (protein)
chain: GLPAGDVLEPVQKPHEGPGEMGKPVVIPKEDQEKMKEMFKINQFNLMASEMIALNRSLPDVRLEGCKTKVYPDNLPTTSVVIVFHNEAWSTLLRTVHSVINRSPRHMIEEIVLVDDASERDFLKRPLESYVKKLKVPVHVIRMEQRSGLIRARLKGAAVSKGQVITFLDAHCECTVGWLEPLLARIKHDRRTVVCPIIDVISDDTFEYMAGSDMTYGGFNWKLNFRWYPVPQREMDRRKGDRTLPVRTPTMAGGLFSIDRDYFQEIGTYDAGMDIWGGENLEISFRIWQCGGTLEIVTCSHVGHVFRKATPYTFPGGTGQIINKNNRRLAEVWMDEFKNFFYIISPGVTKVDYGDISSRVGLRHKLQCKPFSWYLENIYPDSQIPRHYFSLGEIRNVETNQCLDNMARKENEKVGIFNCHGMGGNQVFSYTANKEIRTDDLCLDVSKLNGPVTMLKCHHLKGNQLWEYDPVKLTLQHVNSNQCLDKATEEDSQVPSIRDCNGSRSQQWLLRNVTLPEIF
enzymatic modification of R5 (Glycosylation): resulted in no modifications

B7: OGT (protein)
chain: ASSVGNVADSTEPTKRMLSFQGLAELAHREYQAGDFEAAERHCMQLWRQEPDNTGVLLLLSSIHFQCRRLDRSAHFSTLAIKQNPLLAEAYSNLGNVYKERGQLQEAIEHYRHALRLKPDFIDGYINLAAALVAAGDMEGAVQAYVSALQYNPDLYCVRSDLGNLLKALGRLEEAKACYLKAIETQPNFAVAWSNLGCVFNAQGEIWLAIHHFEKAVTLDPNFLDAYINLGNVLKEARIFDRAVAAYLRALSLSPNHAVVHGNLACVYYEQGLIDLAIDTYRRAIELQPHFPDAYCNLANALKEKGSVAEAEDCYNTALRLCPTHADSLNNLANIKREQGNIEEAVRLYRKALEVFPEFAAAHSNLASVLQQQGKLQEALMHYKEAIRISPTFADAYSNMGNTLKEMQDVQGALQCYTRAIQINPAFADAHSNLASIHKDSGNIPEAIASYRTALKLKPDFPDAYCNLAHCLQIVCDWTDYDERMKKLVSIVADQLEKNRLPSVHPHHSMLYPLSHGFRKAIAERHGNLCLDKINVLHKPPYEHPKDLKLSDGRLRVGYVSSDFGNHPTSHLMQSIPGMHNPDKFEVFCYALSPDDGTNFRVKVMAEANHFIDLSQIPCNGKAADRIHQDGIHILVNMNGYTKGARNELFALRPAPIQAMWLGYPGTSGALFMDYIITDQETSPAEVAEQYSEKLAYMPHTFFIGDHANMFPHLKKKAVIDFKSNGHIYDNRIVLNGIDLKAFLDSLPDVKIVKMKCPDGGDNADSSNTALNMPVIPMNTIAEAVIEMINRGQIQITINGFSISNGLATTQINNKAATGEEVPRTIIVTTRSQYGLPEDAIVYCNFNQLYKIDPSTLQMWANILKRVPNSVLWLLRFPAVGEPNIQQYAQNMGLPQNRIIFSPVAPKEEHVRRGQLADVCLDTPLCNGHTTGMDVLWAGTPMVTMPGETLASRVAASQLTCLGCLELIAKNRQEYEDIAVKLGTDLEYLKKVRGKVWKQRISSPLFNTKQYTMELERLYLQMWEHYAAGNKPDHMIKPVEVTESA
enzymatic modification of R5 (Glycosylation): resulted in no modifications

B8: Thermospermine synthase ACL5 (protein)
chain: MGEAVEVMFGNGFPEIHKATSPTQTLHSNQQDCHWYEETIDDDLKWSFALNSVLHQGTSEYQDIALLDTKRFGKVLVIDGKMQSAERDEFIYHECLIHPALLFHPNPKTVFIMGGGEGSAAREILKHTTIEKVVMCDIDQEVVDFCRRFLTVNSDAFCNKKLELVIKDAKAELEKREEKFDIIVGDLADPVEGGPCYQLYTKSFYQNILKPKLSPNGIFVTQAGPAGIFTHKEVFTSIYNTMKQVFKYVKAYTAHVPSFADTWGWVMASDHEFDVEVDEMDRRIEERVNGELMYLNAPSFVSAATLNKTISLALEKETEVYSEENARFIHGHGVAYRHI
propylamination of R5 (LC-MS time course): the incorporation of one thermospermine molecule into R5

B9: POMT1 (protein)
chain: MWGFLKRPVVVTADINLSLVALTGMGLLSRLWRLTYPRAVVFDEVYYGQYISFYMKQIFFLDDSGPPFGHMVLALGGYLGGFDGNFLWNRIGAEYSSNVPVWSLRLLPALAGALSVPMAYQIVLELHFSHCAAMGAALLMLIENALITQSRLMLLESVLIFFNLLAVLSYLKFFNCQKHSPFSLSWWFWLTLTGVACSCAVGIKYMGVFTYVLVLGVAAVHAWHLLGDQTLSNVGADVQCCMRPACMGQMQMSQGVCVFCHLLARAVALLVIPVVLYLLFFYVHLILVFRSGPHDQIMSSAFQASLEGGLARITQGQPLEVAFGSQVTLRNVFGKPVPCWLHSHQDTYPMIYENGRGSSHQQQVTCYPFKDVNNWWIVKDPRRHQLVVSSPPRPVRHGDMVQLVHGMTTRSLNTHDVAAPLSPHSQEVSCYIDYNISMPAQNLWRLEIVNRGSDTDVWKTILSEVRFVHVNTSAVLKLSGAHLPDWGYRQLEIVGEKLSRGYHGSTVWNVEEHRYGASQEQRERERELHSPAQVDVSRNLSFMARFSELQWRMLALRSDDSEHKYSSSPLEWVTLDTNIAYWLHPRTSAQIHLLGNIVIWVSGSLALAIYALLSLWYLLRRRRNVHDLPQDAWLRWVLAGALCAGGWAVNYLPFFLMEKTLFLYHYLPALTFQILLLPVVLQHISDHLCRSQLQRSIFSALVVAWYSSACHVSNTLRPLTYGDKSLSPHELKALRWKDSWDILIRKH
enzymatic modification of R5 (Glycosylation): resulted in no modifications

B10: vopS (protein)
chain: GKEYTINAATQEFTRANPTSGAVARFFEATGKLFREGSTQSVAKAITKAVFDNEQGQAQRLQTSSSVEHGQMLFKDANLKTPSDVLNAFAKLDSKMVKSHAAELSQLAERAMTEVMLETDSGKNLKALIGDDAVKSLAVRVVKDYGGGVAAAQKNPEVRINQMQAVFDMEVMHLKAAQRHIEGLASTDLNQGVYAEGLPEDAFNKAGVTNNVERAAAWIINASNSKGNDAENITSLLKEYATNGKDLLNMDNLKELHARLVPNVERDYRGPNISGGTLPSSIGGEGMLKQHIEGFLKENPVADKDLGKHLFAGVIGYHGFTDGNGRMGRMLYAIAELRNDSFNPLAMNAENSLHGIK
enzymatic modification of R5 (Adenylylation): resulted in no modifications

B11: LipB (protein)
chain: MYQDKILVRQLGLQPYEPISQAMHEFTDTRDDSTLDEIWLVEHYPVFTQGQAGKAEHILMPGDIPVIQSDRGGQVTYHGPGQQVMYVLLNLKRRKLGVRELVTLLEQTVVNTLAELGIEAHPRADAPGVYVGEKKICSLGLRIRRGCSFHGLALNVNMDLSPFLRINPCGYAGMEMAKISQWKPEATTNNIAPRLLENILALLNNPDFEYITA
enzymatic modification of R5 (Lipidation): resulted in no modifications

B12: deoxyhypusine hydroxulase (DOHH) (protein)
chain: MVTEQEVDAIGQTLVDPKQPLQARFRALFTLRGLGGPGAIAWISQAFDDDSALLKHELAYCLGQMQDARAIPMLVDVLQDTRQEPMVRHEAGEALGAIGDPEVLEILKQYSSDPVIEVAETCQLAVRRLEWLQQHGGEPAAGPYLSVDPAPPAEERDVGRLREALLDESRPLFERYRAMFALRNAGGEEAALALAEGLHCGSALFRHEVGYVLGQLQHEAAVPQLAAALARCTENPMVRHECAEALGAIARPACLAALQAHADDPERVVRESCEVALDMYEHETGRAFQYADGLEQLRGAPS
hypusination of R5 (LC-MS time course): A time course showing the conversion of two lysine to hypusine residues was determined by LC-MS

B13: deoxyhypusine synthase (DHPS) (protein)
chain: MEGSLEREAPAGALAAVLKHSSTLPPESTQVRGYDFNRGVNYRALLEAFGTTGFQATNFGRAVQQVNAMIEKKLEPLSQDEDQHADLTQSRRPLTSCTIFLGYTSNLISSGIRETIRYLVQHNMVDVLVTTAGGVEEDLIKCLAPTYLGEFSLRGKELRENGINRIGNLLVPNENYCKFEDWLMPILDQMVMEQNTEGVKWTPSKMIARLGKEINNPESVYYWAQKNHIPVFSPALTDGSLGDMIFFHSYKNPGLVLDIVEDLRLINTQAIFAKCTGMIILGGGVVKHHIANANLMRNGADYAVYINTAQEFDGSDSGARPDEAVSWGKIRVDAQPVKVYADASLVFPLLVAETFAQKMDAFMHEKNED
hypusination of R5 (LC-MS time course): A time course showing the conversion of two lysine to hypusine residues was determined by LC-MS
